Test results as given in publication PMC2843729.

Molecular target: mouse CNPase catalytic domain containing the C-terminal tail (construct 6-2) (mouse)
Test: SEC; HiLoad 16/60 Superdex 200, after Ni-TED purification and TEV cleavage; dimer to monomers

stoichiometry N: 2
Substance: mouse CNPase catalytic domain containing the C-terminal tail (construct 6-2) (domain or fragment)
